Experimental data reported in article PMC9797058.

What was measured:
[1] = target: N-terminally His-tagged Pasteurella multocida toxin (PMT) (Pasteurella multocida) (UniProt P17452); test: ELISA; solid-phase binding assay; His-PMT coated at 10 ug/mL (500 ng/well) on 96-well Maxisorb plates at 4 C overnight; LRP1 cluster 2, 3 or 4 at 0.02-500 nM, RT, 2 h; TBS with 2 mM CaCl2; bound ligand detected with goat anti-human IgG-HRP
LRP1 (Homo sapiens) = LRP1 (Homo sapiens) (UniProt Q07954); details: cited from earlier work

Sequence of UniProt P17452 (P17452 whole entry): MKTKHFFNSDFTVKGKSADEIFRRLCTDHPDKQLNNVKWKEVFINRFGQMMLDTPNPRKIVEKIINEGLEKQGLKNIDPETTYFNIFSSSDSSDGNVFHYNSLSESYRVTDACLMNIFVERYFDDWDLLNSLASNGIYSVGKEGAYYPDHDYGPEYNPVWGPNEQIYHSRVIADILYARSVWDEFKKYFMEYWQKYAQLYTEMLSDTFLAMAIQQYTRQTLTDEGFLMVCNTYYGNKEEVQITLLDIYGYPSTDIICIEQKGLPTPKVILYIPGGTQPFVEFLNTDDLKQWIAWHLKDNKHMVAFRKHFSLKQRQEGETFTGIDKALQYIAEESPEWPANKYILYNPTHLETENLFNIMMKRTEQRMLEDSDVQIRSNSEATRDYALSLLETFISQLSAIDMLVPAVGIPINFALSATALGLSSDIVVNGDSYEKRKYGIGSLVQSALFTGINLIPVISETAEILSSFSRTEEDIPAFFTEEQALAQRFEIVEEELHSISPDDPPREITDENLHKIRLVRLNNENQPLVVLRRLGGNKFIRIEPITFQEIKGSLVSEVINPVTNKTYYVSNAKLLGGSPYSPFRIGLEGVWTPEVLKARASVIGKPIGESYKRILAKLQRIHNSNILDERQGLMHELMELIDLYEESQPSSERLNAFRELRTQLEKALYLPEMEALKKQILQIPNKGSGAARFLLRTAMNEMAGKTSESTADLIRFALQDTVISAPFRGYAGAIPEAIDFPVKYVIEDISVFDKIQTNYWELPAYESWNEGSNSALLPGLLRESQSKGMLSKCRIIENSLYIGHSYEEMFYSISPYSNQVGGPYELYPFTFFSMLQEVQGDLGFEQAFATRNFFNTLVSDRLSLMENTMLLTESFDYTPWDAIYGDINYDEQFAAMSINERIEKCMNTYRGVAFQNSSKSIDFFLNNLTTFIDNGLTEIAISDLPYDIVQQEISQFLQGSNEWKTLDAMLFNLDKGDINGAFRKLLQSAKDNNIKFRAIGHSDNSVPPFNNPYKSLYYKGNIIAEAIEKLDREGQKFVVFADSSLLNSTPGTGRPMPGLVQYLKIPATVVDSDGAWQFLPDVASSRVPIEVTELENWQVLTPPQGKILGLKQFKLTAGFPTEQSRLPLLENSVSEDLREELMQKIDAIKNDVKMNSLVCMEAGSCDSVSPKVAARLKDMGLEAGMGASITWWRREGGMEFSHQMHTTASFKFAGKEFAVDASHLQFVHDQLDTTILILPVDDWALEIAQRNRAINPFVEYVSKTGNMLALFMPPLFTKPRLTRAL

Substance | Kd [1] [nM] | Kd (LRP1 (Homo sapiens)) [nM]
LRP1 cluster 2 (commercially available extracellular domain) (from UniProt Q07954 20-4544) (domain or fragment) | 41.6 | 
LRP1 cluster 4 (commercially available extracellular domain) (from UniProt Q07954 20-4544) (domain or fragment) | 2.28 | 
Pseudomonas exotoxin A (from UniProt P11439) |  | 5.2
